Results published in patent US20240092890A1 (JUNTENDO EDUCATIONAL FOUNDATION, published 2024).

T1: Ins 5 type mutant CALR protein on UT-7/TPO CALR Ins 5 cells (UniProt P27797 18-417)
T1 sequence (looked up): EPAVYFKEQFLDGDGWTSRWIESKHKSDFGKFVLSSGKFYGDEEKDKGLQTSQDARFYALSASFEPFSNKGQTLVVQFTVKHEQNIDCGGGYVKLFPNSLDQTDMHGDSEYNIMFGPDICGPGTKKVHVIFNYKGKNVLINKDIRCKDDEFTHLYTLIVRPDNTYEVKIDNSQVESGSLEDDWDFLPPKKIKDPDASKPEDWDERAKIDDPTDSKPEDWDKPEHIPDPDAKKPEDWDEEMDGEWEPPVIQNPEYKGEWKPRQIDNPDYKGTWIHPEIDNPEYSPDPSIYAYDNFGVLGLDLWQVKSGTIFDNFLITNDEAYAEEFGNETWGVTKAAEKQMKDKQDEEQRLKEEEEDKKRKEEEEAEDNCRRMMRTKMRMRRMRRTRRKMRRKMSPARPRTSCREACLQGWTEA

T2: protein having an Fc region and a His-tag added to the N-terminus of SEQ ID NO: 1
T2 construct: also called mutant CALR protein (antigen of the BLItz measurement); not shown: Fc region and His-tag at the N-terminus
T2 chain: RRMMRTKMRMRRM


Each binder was assayed against T1, Ins 5 type mutant CALR protein on … (assay: cell-based or functional assay).

| Binder | EC50 of cytotoxic activity (pM) |
| --- | --- |
| Antibody 62 (bispecific antibody) chain 1: not shown chain 2: DIQMTQSPSFVSASVGDRVTITCLASEDIYSYLAWYQQKPGKAPKLLIFAANRLQDGVPSRFSGGGSGTGFTLTISSLQPEDFATYFCLQGSKFPYTFGQGTKLEINRTVAAPSVFIFPPSDEQLKSGTASVVCLLNNFYPREAKVQWKVDNALQSGNSQESVTEQDSKDSTYSLSSTLTLSKADYEKHKVYACEVTHQGLSSPVTKSFNRGEC | 91 pM |
| Antibody 56 (bispecific antibody) chain 1: not shown chain 2: DIQMTQSPSFVSASVGDRVTITCLASEDIYSYLAWYQQKPGKAPKLLIFAANRLQDGVPSRFSGGGSGTGFTLTISSLQPEDFATYFCLQGSKFPYTFGQGTKLEINRTVAAPSVFIFPPSDEQLKSGTASVVCLLNNFYPREAKVQWKVDNALQSGNSQESVTEQDSKDSTYSLSSTLTLSKADYEKHKVYACEVTHQGLSSPVTKSFNRGEC | 45 pM |
| Antibody 57 (bispecific antibody) chain 1: not shown chain 2: DIQMTQSPSFVSASVGDRVTITCLASEDIYSYLAWYQQKPGKAPKLLIFAANRLQDGVPSRFSGGGSGTGFTLTISSLQPEDFATYFCLQGSKFPYTFGQGTKLEINRTVAAPSVFIFPPSDEQLKSGTASVVCLLNNFYPREAKVQWKVDNALQSGNSQESVTEQDSKDSTYSLSSTLTLSKADYEKHKVYACEVTHQGLSSPVTKSFNRGEC | 398 pM |

Target: T2, protein having an Fc region and a …
Test: BLItz biolayer interferometry, Fc/His-SEQ ID NO: 1 protein on the biosensor
Procedure: As another method, measurements were performed using the molecular interaction analysis system BLItz (ForteBio), which applies biolayer interferometry […]. Specifically, a protein having an Fc region and a His-tag added to the N-terminus of SEQ ID NO: 1 was immobilized at a concentration of 0.1 mg/mL using the Anti-Penta-HIS or ProteinA biosensor (ForteBio). Subsequently, the antibodies 1 to 114 made were prepared at a concentration of 500, 100, and 50 nM and reacted to acquire the dissociation constant.

| Kd | Binder |
| --- | --- |
| < 1 pM | Antibody 62 (bispecific antibody) chain 1: not shown chain 2: DIQMTQSPSFVSASVGDRVTITCLASEDIYSYLAWYQQKPGKAPKLLIFAANRLQDGVPSRFSGGGSGTGFTLTISSLQPEDFATYFCLQGSKFPYTFGQGTKLEINRTVAAPSVFIFPPSDEQLKSGTASVVCLLNNFYPREAKVQWKVDNALQSGNSQESVTEQDSKDSTYSLSSTLTLSKADYEKHKVYACEVTHQGLSSPVTKSFNRGEC |
| < 1 pM | Antibody 73 (bispecific antibody) chain 1: not shown chain 2: DIQMTQSPSFVSASVGDRVTITCLASEDIYSYLAWYQQKPGKAPKLLIFAANRLQSGVPSRFSGGGSGTGFTLTISSLQPEDFATYFCLQGSKFPYTFGQGTKLEINRTVAAPSVFIFPPSDEQLKSGTASVVCLLNNFYPREAKVQWKVDNALQSGNSQESVTEQDSKDSTYSLSSTLTLSKADYEKHKVYACEVTHQGLSSPVTKSFNRGEC |
| < 1 pM | Antibody 97 (bispecific antibody) chain 1: not shown chain 2: DIQMTQSPSSLSASVGDRVTITCLASEDIYSYLAWYQQKPGKAPKLLIFAANRLQDGVPSRFSGSGSGTDFTLTISSLQPEDFATYYCLQGSKFPYTFGPGTKVDIKRTVAAPSVFIFPPSDEQLKSGTASVVCLLNNFYPREAKVQWKVDNALQSGNSQESVTEQDSKDSTYSLSSTLTLSKADYEKHKVYACEVTHQGLSSPVTKSFNRGEC |
| < 1 pM | Antibody 56 (bispecific antibody) chain 1: not shown chain 2: DIQMTQSPSFVSASVGDRVTITCLASEDIYSYLAWYQQKPGKAPKLLIFAANRLQDGVPSRFSGGGSGTGFTLTISSLQPEDFATYFCLQGSKFPYTFGQGTKLEINRTVAAPSVFIFPPSDEQLKSGTASVVCLLNNFYPREAKVQWKVDNALQSGNSQESVTEQDSKDSTYSLSSTLTLSKADYEKHKVYACEVTHQGLSSPVTKSFNRGEC |
| < 1 pM | Antibody 81 (bispecific antibody) chain 1: not shown chain 2: DIQMTQSPSSLSASVGDRVTITCLASEDIYSYLAWYQQKPGKAPKLLIFAANRLQDGVPSRFSGSGSGTDFTLTISSLQPEDFATYYCLQGSKFPYTFGPGTKVDIKRTVAAPSVFIFPPSDEQLKSGTASVVCLLNNFYPREAKVQWKVDNALQSGNSQESVTEQDSKDSTYSLSSTLTLSKADYEKHKVYACEVTHQGLSSPVTKSFNRGEC |
| < 1 pM | Antibody 96 (bispecific antibody) chain 1: not shown chain 2: DIQMTQSPSSLSASVGDRVTITCLASEDIYSYLAWYQQKPGKAPKLLIFAANRLQDGVPSRFSGSGSGTDFTLTISSLQPEDFATYYCLQGSKFPYTFGPGTKVDIKRTVAAPSVFIFPPSDEQLKSGTASVVCLLNNFYPREAKVQWKVDNALQSGNSQESVTEQDSKDSTYSLSSTLTLSKADYEKHKVYACEVTHQGLSSPVTKSFNRGEC |
| < 1 pM | Antibody 57 (bispecific antibody) chain 1: not shown chain 2: DIQMTQSPSFVSASVGDRVTITCLASEDIYSYLAWYQQKPGKAPKLLIFAANRLQDGVPSRFSGGGSGTGFTLTISSLQPEDFATYFCLQGSKFPYTFGQGTKLEINRTVAAPSVFIFPPSDEQLKSGTASVVCLLNNFYPREAKVQWKVDNALQSGNSQESVTEQDSKDSTYSLSSTLTLSKADYEKHKVYACEVTHQGLSSPVTKSFNRGEC |
| < 1 pM | Antibody 99 (bispecific antibody) chain 1: not shown chain 2: DIQMTQSPSSLSASVGDRVTITCLASEDIYSYLAWYQQKPGKAPKLLIFAANRLQDGVPSRFSGSGSGTDFTLTISSLQPEDFATYYCLQGSKFPYTFGPGTKVDIKRTVAAPSVFIFPPSDEQLKSGTASVVCLLNNFYPREAKVQWKVDNALQSGNSQESVTEQDSKDSTYSLSSTLTLSKADYEKHKVYACEVTHQGLSSPVTKSFNRGEC |
| < 1 pM | Antibody 79 (bispecific antibody) chain 1: not shown chain 2: DIQMTQSPSFVSASVGDRVTITCLASEDIYSYLAWYQQKPGKAPKLLIFAANRLQDGVPSRFSGGGSGTGFTLTISSLQPEDFATYFCLQGSKFPYTFGQGTKLEIKRTVAAPSVFIFPPSDEQLKSGTASVVCLLNNFYPREAKVQWKVDNALQSGNSQESVTEQDSKDSTYSLSSTLTLSKADYEKHKVYACEVTHQGLSSPVTKSFNRGEC |
| < 1 pM | Antibody 87 (bispecific antibody) chain 1: not shown chain 2: DIQMTQSPSSLSASVGDRVTITCLASEDIYSYLAWYQQKPGKAPKLLIFAANRLQSGVPSRFSGSGSGTDFTLTISSLQPEDFATYYCLQGSKFPYTFGPGTKVDIKRTVAAPSVFIFPPSDEQLKSGTASVVCLLNNFYPREAKVQWKVDNALQSGNSQESVTEQDSKDSTYSLSSTLTLSKADYEKHKVYACEVTHQGLSSPVTKSFNRGEC |
| < 1 pM | Antibody 98 (bispecific antibody) chain 1: not shown chain 2: DIQMTQSPSSLSASVGDRVTITCLASEDIYSYLAWYQQKPGKAPKLLIFAANRLQDGVPSRFSGSGSGTDFTLTISSLQPEDFATYYCLQGSKFPYTFGPGTKVDIKRTVAAPSVFIFPPSDEQLKSGTASVVCLLNNFYPREAKVQWKVDNALQSGNSQESVTEQDSKDSTYSLSSTLTLSKADYEKHKVYACEVTHQGLSSPVTKSFNRGEC |
| < 1 pM | Antibody 93 (bispecific antibody) chain 1: not shown chain 2: DIQMTQSPSSLSASVGDRVTITCLASEDIYSYLAWYQQKPGKAPKLLIFAANRLQSGVPSRFSGSGSGTDFTLTISSLQPEDFATYYCLQGSKFPYTFGPGTKVDIKRTVAAPSVFIFPPSDEQLKSGTASVVCLLNNFYPREAKVQWKVDNALQSGNSQESVTEQDSKDSTYSLSSTLTLSKADYEKHKVYACEVTHQGLSSPVTKSFNRGEC |
| < 1 pM | Antibody 95 (bispecific antibody) chain 1: not shown chain 2: DIQMTQSPSSLSASVGDRVTITCLASEDIYSYLAWYQQKPGKAPKLLIFAANRLQDGVPSRFSGSGSGTDFTLTISSLQPEDFATYYCLQGSKFPYTFGPGTKVDIKRTVAAPSVFIFPPSDEQLKSGTASVVCLLNNFYPREAKVQWKVDNALQSGNSQESVTEQDSKDSTYSLSSTLTLSKADYEKHKVYACEVTHQGLSSPVTKSFNRGEC |
| < 1 pM | Antibody 112 (bispecific antibody, human IgG1, kappa, L234A L235A) chain 1: not shown chain 2: DIQMTQSPSSLSASVGDRVTITCLASEDIYSYLAWYQQKPGKAPKLLIFAANRLQDGVPSRFSGSGSGTDFTLTISSLQPEDFATYYCLQGSKFPYTFGPGTKVDIKGGGGSGGGGSGGGGSQVQLVQSGAEVKKPGSSVKVSCKASGYTFTRNFIHWIRQAPGQGLEWIGWIFPGDADTEYNQKFSGRATITADKSTSTAYMELSSLRSEDTAVYYCARGNYNYEYFDYWGQGTMVTVSSDKTHTCPPCPAPEAAGGPSVFLFPPKPKDTLMISRTPEVTCVVVDVSHEDPEVKFNWYVDGVEVHNAKTKPREEQYNSTYRVVSVLTVLHQDWLNGKEYKCKVSNKALPAPIEKTISKAKGQPREPQVCTLPPSREEMTKNQVSLSCAVKGFYPSDIAVEWESNGQPENNYKTTPPVLDSDGSFFLVSKLTVDKSRWQQGNVFSCSVMHEALHNHYTQKSLSLSPGK chain 3: DIQMTQSPSSLSASVGDRVTITCLASEDIYSYLAWYQQKPGKAPKLLIFAANRLQDGVPSRFSGSGSGTDFTLTISSLQPEDFATYYCLQGSKFPYTFGPGTKVDIKRTVAAPSVFIFPPSDEQLKSGTASVVCLLNNFYPREAKVQWKVDNALQSGNSQESVTEQDSKDSTYSLSSTLTLSKADYEKHKVYACEVTHQGLSSPVTKSFNRGECGGGGSGGGGSQVQLVQSGGGVVQPGRSLRLSCKASGYTFTRYTMHWVRQAPGKGLEWIGYINPSRGYTNYNQKVKDRFTISRDNSKNTAFLQMDSLRPEDTGVYFCARYYDDHYSLDYWGQGTPVTVSSGGGGSGGGGSGGGGSDIQMTQSPSSLSASVGDRVTITCSASSSVSYMNWYQQTPGKAPKRWIYDTSKLASGVPSRFSGSGSGTDYTFTISSLQPEDIATYYCQQWSSNPFTFGQGTKLQITR |
| 32.4 pM | Antibody 113 (bispecific antibody, human IgG1, kappa, L234A L235A) chain 1: not shown chain 2: DIQMTQSPSSLSASVGDRVTITCLASEDIYSYLAWYQQKPGKAPKLLIFAANRLQDGVPSRFSGSGSGTDFTLTISSLQPEDFATYYCLQGSKFPYTFGPGTKVDIKGGGGSGGGGSGGGGSQVQLVQSGAEVKKPGSSVKVSCKASGYTFTRNFIHWIRQAPGQGLEWIGWIFPGDADTEYNQKFSGRATITADKSTSTAYMELSSLRSEDTAVYYCARGNYNYEYFDYWGQGTMVTVSSDKTHTCPPCPAPEAAGGPSVFLFPPKPKDTLMISRTPEVTCVVVDVSHEDPEVKFNWYVDGVEVHNAKTKPREEQYNSTYRVVSVLTVLHQDWLNGKEYKCKVSNKALPAPIEKTISKAKGQPREPQVCTLPPSREEMTKNQVSLSCAVKGFYPSDIAVEWESNGQPENNYKTTPPVLDSDGSFFLVSKLTVDKSRWQQGNVFSCSVMHEALHNHYTQKSLSLSPGK chain 3: DIQMTQSPSSLSASVGDRVTITCLASEDIYSYLAWYQQKPGKAPKLLIFAANRLQSGVPSRFSGSGSGTDFTLTISSLQPEDFATYYCLQGSKFPYTFGPGTKVDIKRTVAAPSVFIFPPSDEQLKSGTASVVCLLNNFYPREAKVQWKVDNALQSGNSQESVTEQDSKDSTYSLSSTLTLSKADYEKHKVYACEVTHQGLSSPVTKSFNRGECGGGGSGGGGSQVQLVQSGGGVVQPGRSLRLSCKASGYTFTRYTMHWVRQAPGKGLEWIGYINPSRGYTNYNQKVKDRFTISRDNSKNTAFLQMDSLRPEDTGVYFCARYYDDHYSLDYWGQGTPVTVSSGGGGSGGGGSGGGGSDIQMTQSPSSLSASVGDRVTITCSASSSVSYMNWYQQTPGKAPKRWIYDTSKLASGVPSRFSGSGSGTDYTFTISSLQPEDIATYYCQQWSSNPFTFGQGTKLQITR |
